This is an account of results in patent publication US9260754B2, “Connexin mutation detection for lymphatic variation and disease” (University of Pittsburgh—Of the Commonwealth System of …, priority 2010, dated 2016).

For one experiment, the system named is HeLa cell pairs. The experiment is described as follows: Dual whole cell patch clamp recording of coupling current in transfected HeLa cell pairs. The following applies: for electrical coupling: Table 6 (Example 4), HeLa cell pairs, 100 mV step, mean ± SEM; for electrical coupling / functional channels in HeLa cell pairs (in words): transfected HeLa cell pairs, voltage step protocol −100 to +100 mV. The experiment is classed as cell-based, human. The method, then: Coupling currents were recorded using simultaneous double whole-cell patch clamp recordings from isolated pairs of cells that were in contact with one another (determined visually) as previously described. Briefly, the pipette solution consisted of (mM): 130 CsCl, 10 EGTA, 10 HEPES, 3 Mg-ATP, 2 Na-ATP, 0.5 CaCl2, pH 7.3. The culture was bathed in a solution consisting of (mM): 140 NaCl, 5 HEPES, 5 glucose, 4 KCl, 2 CsCl, 2 CaCl2, 2 pyruvate, 1 BaCl2, pH 7.3. Transfected HeLas undergo electrophysiologic analysis in a blinded manner. Pairs of cells were chosen for study only if both expressed the GFP marker indicative of successful transfections; both stable and transient transfectants were analyzed. Patch pipettes were fabricated from borosilicate glass, and coupling currents were amplified by Axopatch 200A amplifiers, filtered at 1 KHz, and digitized at 5 KHz for subsequent analysis using pClamp software (Axon Instruments/Molecular Devices; Sunnyvale, Calif.). All experiments were carried out at room temperature (22° C.). Coupling current was quantified by measuring the peak current recorded in the pair when the neighboring cell received a 100 mV step membrane potential change (in both positive and negative directions). Step changes in membrane potential were delivered to each cell in the pair in sequence and the average current recorded in the neighboring cell was determined and divided by 100 to generate coupling current expressed in pA/mV. Means±SEM were calculated and statistical significance using a one-way analysis of variance and Tukey's post-hoc test, p<0.05.
Coupling current is quantified by measuring the peak current recorded in the pair when the neighboring cell receives a 100 mV step membrane potential change (in both positive and negative directions). Step changes in membrane potential are delivered to each cell in the pair in sequence and the average current recorded in the neighboring cell determined and divided by 100 to generate coupling current expressed in pA/mV (FIG. 6C). Replicate measurements (n=3-6) are made on at least two different days. […] The untransfected HeLa cell pairs also show minimal channel function, as predicted.
Electrophysiologic characteristics of GJIC were measured between HeLa cell pairs transfected with the mutant constructs (as indicated by EGFP expression) by dual whole cell patch clamp recording. All experiments were carried out in a blinded manner. Coupling current is quantified by measuring the peak current recorded in the pair when the neighboring cell receives a 100 mV step membrane potential change (in both positive and negative directions). Step changes in membrane potential are delivered to each cell in the pair in sequence and the average current recorded in the neighboring cell determined and divided by 100 to generate coupling current expressed in pA/mV. Untransfected HeLa cells and cells transfected with empty vector (i.e., no hCx47) were used as additional controls.

Experiment [1] has as its system HeLa cells. The experiment is described as follows: Cx47 gap junction plaque formation by immunofluorescent confocal microscopy in transfected HeLa cells. The experiment is classed as cell-based, human. The following applies: near confluent transfected HeLa cells. The method, then: Human neonatal foreskin was collected anonymously as discarded tissue according to an IRB protocol. Samples were collected immediately after harvest in DMEM, then fixed in 2% paraformaldehyde for 2 hrs, then stored in 30% sucrose in 1×PBS overnight for cryosectioning, and sectioned in 6 μm slices at −30° C. Transfected (stable and transient) and untransfected HeLa cells were grown to near confluence in coverslip bottom dishes. All cells were rinsed with PBS and fixed with 2% paraformaldehyde. Subsequently, tissue and HeLa cells were processed similarly: following permeabilization with 0.1% Triton X, cells were blocked with 2% BSA. A human Cx47 antibody (ab) was obtained from the S. Scherer laboratory: polyclonal rabbit against amino acids 344-399 in the cytoplasmic C-terminal tail; we used human CNS tissue and positive oligodendrocyte staining as a positive control and primary antibody delete and rabbit IgG as negative controls (data not shown). Cx47 ab was diluted in 0.5% BSA in a 1:200 ratio, applied to cells and incubated at RT for one hour. Mouse monoclonal Proxl (Chemicon) was used as a lymphatic marker for the foreskin samples. Cells were incubated with the secondary abs (Donkey Anti-Rabbit Cy5 and Donkey Anti-Mouse Cy3; Invitrogen) for one hour at RT and washed; Draq5 was used as a nuclear marker. HeLa images were acquired with an inverted Olympus Fluoview 1000 Confocal Microscope 100× oil, 1.4 NA objective. Foreskin images were acquired on a Zeiss Meta LSM 510 inverted confocal microscope with 40× oil, 1.3 N.A. objective. LECs (primary human microvascular adult dermal lymphatics; Lonza) were grown in fibronectin coated coverslip bottom MatTeks dishes in EGM™-2 MV—Microvascular Endothelial Cell Medium-2 (Lonza Inc.) to approximately 80% confluence, and prepared similarly but a commercially available (AbCam) Cx47 ab, polyclonal rabbit against amino acids 41-70 in the human sequence was used along with Drag 5 nuclear marker and phalloidin to mark f-actin.
Immunofluorescence microscopy determines the presence or absence of Cx47 gap junction plaques when the constructs are transiently expressed in HeLa cells. Cx plaques reflect a physiologic accumulation of Cx channels in the cell membrane between cells (tens to thousands of channels); thus plaques are indicative of normal trafficking and gap junction formation at the cell membrane.
Immunofluorescence microscopy determines the presence or absence of Cx47 gap junction plaques when the constructs are transiently expressed in HeLa cells. A human Cx47 antibody was obtained: polyclonal rabbit against amino acids 344-399 in the cytoplasmic C-terminal tail (Orthmann-Murphy J L, et al. Mol Cell Neurosci 2007; 34:629-41); we used human CNS tissue and positive oligodendrocyte staining as a positive control and primary antibody delete as a negative control (data not shown). Cultured HeLa cells were routinely fixed and stained with the primary antibodies against Cx47, along with a nuclear marker, and transfected cells were identified by their EGFP signal. Plaques were imaged using an Olympus Fluoview 1000 confocal microscope, 100× oil objective.

For experiment [2], the system named is HeLa cells. The experiment is described as follows: Wound assay (proliferation/migration) in confluent transfected HeLa cells. The format is cell-based, human. The following applies: fraction of original wound in HeLa cell monolayer after 24 hrs; mean ± SEM. How it is done: The wound assay, a measure of proliferation/migration, was performed using differential interference contrast time lapse of over 24 hrs using confluent transfected HeLa cells. Analysis was done using TScratch (Geback T, et al. TScratch: a novel and simple software tool for automated analysis of monolayer wound healing assays. Biotechniques 2009; 46:265-74), mean±SEM of at least 10 positions along wound; the scrape width was normalized to the first image for each position. In all cases a two tailed student's T test was applied with p<0.05 considered significant.

Experiment [3] deals with Adult human dermal lymphatic microvascular endothelial cells. The experiment is described as follows: Lucifer yellow microinjection dye spread in lymphatic endothelial cells expressing mutant constructs. The format is cell-based. The following applies: for LEC spread: Dye spread to tiers of LECs after 2 min, Lucifer yellow microinjection, mean ± SEM; for dye transfer of Lucifer yellow after microinjection compared to WT-hCx47-EGFP expressing LECs (in words): LECs expressing the mutations. How it is done:
Adult human dermal lymphatic microvascular endothelial cells were cultured in EGM™-2 MV (both from Lonza). Cells were electroporated with 2 μg cDNA of the EGFP tagged mutant constructs and then selected with G418 as described above. Cells were microinjected using a combination (1:4 ratio) of 70 kd Texas Red dextran (Invitrogen) to mark injected cell for reference and Lucifer yellow, a known gap junction permeable dye (m.w. 443, −2 charge), to assess change in extent of spread (Abbaci M, et al. Advantages and limitations of commonly used methods to assay the molecular permeability of gap junctional intercellular communication. Biotechniques 2008; 45:33-52, 6-62). All cells were injected using constant conditions and cells were scored for dye spread in tiers from reference cell, using constant exposure time and thresholding, and were imaged using a Nikon TE2000 with temperature controlled motorized stage and Qlmaging Retiga CCD camera. Images were obtained using differential interference contrast (DIC) and standard filters for EGFP (identify expression of mutation), DAPI (for Lucifer yellow) and dsRed (for dextran) preinjection, immediately post-injection and 2 min after injection. Results were calculated as mean SEM and statistical significance was determined in comparison to WT-hCx47-EGFP expressing cells using a Mann-Whitney Test.

Entries after “also recorded” stand apart in the source; their conditions may differ.

B1: G183C: Cx47 missense mutant G183C (547G>T), intracellular loop, construct expressed in HeLa cells (protein, listed as Homo sapiens)
chain: MSWSFLTRLLEEIHNHSTFVGKVWLTVLVVFRIVLTAVGGEAIYSDEQAKFTCNTRQPGCDNVCYDAFAPLSHVRFWVFQIVVISTPSVMYLGYAVHRLARASEQERRRALRRRPGPRRAPRAHLPPPHAGWPEPADLGEEEPMLGLGEEEEEEETGAAEGAGEEAEEAGAEEACTKAVGADCKAAGTPGPTGQHDGRRRIQREGLMRVYVAQLVARAAFEVAFLVGQYLLYGFEVRPFFPCSRQPCPHVVDCFVSRPTEKTVFLLVMYVVSCLCLLLNLCEMAHLGLGSAQDAVRGRRGPPASAPAPAPRPPPCAFPAAAAGLACPPDYSLVVRAAERARAHDQNLANLALQALRDGAAAGDRDRDSSPCVGLPAASRGPPRAGAPASRTGSATSAGTVGEQGRPGTHERPGAKPRAGSEKGSASSRDGKTTVWI
On to B1, for which, in the experiment on HeLa cell pairs, the electrical coupling was found to be 68.6 pA/mV and the “electrical coupling / functional channels in HeLa cell pairs (in words)” value was “increased electrical coupling; also recorded: increased peak coupling currents”. In addition, the “Cx47 plaque formation (in words)” value in the experiment with HeLa cells [1] is on record as “Cx47 intercellular plaques”. The wound assay in the experiment with HeLa cells [2] was 0.68.

B2: P381S: Cx47 missense mutant P381S (1141C>T), C terminal, construct expressed in HeLa cells or LECs (protein, listed as Homo sapiens)
chain: MSWSFLTRLLEEIHNHSTFVGKVWLTVLVVFRIVLTAVGGEAIYSDEQAKFTCNTRQPGCDNVCYDAFAPLSHVRFWVFQIVVISTPSVMYLGYAVHRLARASEQERRRALRRRPGPRRAPRAHLPPPHAGWPEPADLGEEEPMLGLGEEEEEEETGAAEGAGEEAEEAGAEEACTKAVGADGKAAGTPGPTGQHDGRRRIQREGLMRVYVAQLVARAAFEVAFLVGQYLLYGFEVRPFFPCSRQPCPHVVDCFVSRPTEKTVFLLVMYVVSCLCLLLNLCEMAHLGLGSAQDAVRGRRGPPASAPAPAPRPPPCAFPAAAAGLACPPDYSLVVRAAERARAHDQNLANLALQALRDGAAAGDRDRDSSPCVGLPAASRGSPRAGAPASRTGSATSAGTVGEQGRPGTHERPGAKPRAGSEKGSASSRDGKTTVWI
Take B2: in the experiment with HeLa cell pairs, the electrical coupling is 48.2 pA/mV and the “electrical coupling / functional channels in HeLa cell pairs (in words)” value was “well coupled”. The “Cx47 plaque formation (in words)” value in the experiment with HeLa cells [1] is recorded as “Cx47 intercellular plaques”. For the same molecule, in experiment [3], the LEC spread is reported as 2.26 tiers and the “dye transfer of Lucifer yellow after microinjection compared to WT-hCx47-EGFP expressing LECs (in words)” value is “significantly enhanced dye transfer”. Moreover, the wound assay with HeLa cells [2] was found to be 0.70.

B3: H409Y: Cx47 missense mutant H409Y (1225C>T), C terminal, construct expressed in HeLa cells or LECs (protein, listed as Homo sapiens)
chain: MSWSFLTRLLEEIHNHSTFVGKVWLTVLVVFRIVLTAVGGEAIYSDEQAKFTCNTRQPGCDNVCYDAFAPLSHVRFWVFQIVVISTPSVMYLGYAVHRLARASEQERRRALRRRPGPRRAPRAHLPPPHAGWPEPADLGEEEPMLGLGEEEEEEETGAAEGAGEEAEEAGAEEACTKAVGADGKAAGTPGPTGQHDGRRRIQREGLMRVYVAQLVARAAFEVAFLVGQYLLYGFEVRPFFPCSRQPCPHVVDCFVSRPTEKTVFLLVMYVVSCLCLLLNLCEMAHLGLGSAQDAVRGRRGPPASAPAPAPRPPPCAFPAAAAGLACPPDYSLVVRAAERARAHDQNLANLALQALRDGAAAGDRDRDSSPCVGLPAASRGPPRAGAPASRTGSATSAGTVGEQGRPGTYERPGAKPRAGSEKGSASSRDGKTTVWI
Turning to B3, in the experiment on HeLa cell pairs, the electrical coupling is listed as 46.4 pA/mV and the “electrical coupling / functional channels in HeLa cell pairs (in words)” value was “well coupled”. In addition, in the experiment on HeLa cells [1], the “Cx47 plaque formation (in words)” value is given as “Cx47 intercellular plaques”. Moreover, in experiment [3], the LEC spread was determined as 0.07 tiers and the “dye transfer of Lucifer yellow after microinjection compared to WT-hCx47-EGFP expressing LECs (in words)” value was “dramatically impaired dye transfer”. In the experiment with HeLa cells [2], this molecule gave a wound assay of 0.73.
